Data reported in paper PMC10427004, “Restoration of energy homeostasis under oxidative stress: Duo synergistic AMPK pathways regulating arginine kinases” (PLOS Genetics, 2023).

Assays:
[1] = test system: Nc1ncnc2c1ncn2[C@@H]1O[C@H](COP(=O)(O)OP(=O)(O)OP(=O)(O)O)[C@@H](O)[C@H]1O; assay: pyruvate kinase / lactate dehydrogenase coupled assay, A340, Lineweaver-Burk; type: biochemical, Tribolium castaneum; settings: 5 mM L-arginine, 20 mM MgCl2, pH 7.5, 30 °C
[2] = test system: Nc1ncnc2c1ncn2[C@@H]1O[C@H](COP(=O)(O)OP(=O)(O)O)[C@@H](O)[C@H]1O; assay: hexokinase / glucose-6-phosphate dehydrogenase coupled assay, A340, Lineweaver-Burk; type: biochemical, Tribolium castaneum; settings: 5 mM phospho-L-arginine, 20 mM MgCl2, pH 7.5, 30 °C

Substance	Km [1] [mM]	Km [2] [mM]
6×His-TcAK1 (Tribolium castaneum; S129D)	4.5	19.4
6×His-TcAK1 (Tribolium castaneum; T247D)	13.0	10.6
